Measured values from paper doi:10.1101/2025.04.25.650293.

Molecular target: ELMSAN1 (human (endogenous in 143B)) (UniProt Q6PJG2)
Assay: affinity purification with mass spectrometry

UniProt Q6PJG2, sequence (Q6PJG2 whole entry): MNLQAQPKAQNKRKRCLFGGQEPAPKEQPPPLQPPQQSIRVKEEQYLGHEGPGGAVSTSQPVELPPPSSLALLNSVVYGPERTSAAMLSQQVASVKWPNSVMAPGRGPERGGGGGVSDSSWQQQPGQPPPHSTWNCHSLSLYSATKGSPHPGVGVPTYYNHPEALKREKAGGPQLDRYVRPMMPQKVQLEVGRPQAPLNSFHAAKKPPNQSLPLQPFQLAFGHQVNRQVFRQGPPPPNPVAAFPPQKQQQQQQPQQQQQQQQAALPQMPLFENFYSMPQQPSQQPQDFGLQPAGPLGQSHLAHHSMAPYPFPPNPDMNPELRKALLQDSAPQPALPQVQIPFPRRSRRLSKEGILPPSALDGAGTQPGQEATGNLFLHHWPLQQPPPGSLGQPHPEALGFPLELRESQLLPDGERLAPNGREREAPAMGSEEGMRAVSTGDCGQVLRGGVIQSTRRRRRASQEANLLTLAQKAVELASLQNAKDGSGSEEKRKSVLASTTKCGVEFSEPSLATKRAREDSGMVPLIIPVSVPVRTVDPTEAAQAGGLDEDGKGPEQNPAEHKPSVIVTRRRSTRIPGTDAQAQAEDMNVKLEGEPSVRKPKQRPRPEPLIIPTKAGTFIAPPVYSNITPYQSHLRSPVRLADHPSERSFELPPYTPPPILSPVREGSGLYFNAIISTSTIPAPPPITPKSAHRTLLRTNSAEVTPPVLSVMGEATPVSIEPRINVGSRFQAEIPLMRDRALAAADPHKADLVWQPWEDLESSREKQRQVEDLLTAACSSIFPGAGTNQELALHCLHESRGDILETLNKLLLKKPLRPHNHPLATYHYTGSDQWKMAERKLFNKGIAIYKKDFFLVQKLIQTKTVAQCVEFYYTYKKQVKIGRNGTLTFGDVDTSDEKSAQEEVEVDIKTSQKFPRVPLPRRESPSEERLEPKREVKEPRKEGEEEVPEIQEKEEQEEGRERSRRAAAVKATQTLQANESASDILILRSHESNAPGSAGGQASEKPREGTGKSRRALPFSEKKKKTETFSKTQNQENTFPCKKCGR

fold decrease in binding with ISX9 against DMSO: > 100 fold
Substance: PDHX (from UniProt O00330 54-501) (natural protein)
